From patent US6602687B1, “DNA encoding human ciliary neurotrophic factor and method for producing the protein encoded thereby” (Regeneron Pharmaceuticals, Inc., priority 1989, dated 2003)

How the values were obtained:
hippocampal neurons = experiment: Glutamate-induced toxicity in hippocampal cultures (MTT assay); type: cell-based, rat; conditions: in the presence of CNTF (10 ng/ml)
Description: FIG. 38. Protective effect of CNTF on glutamate-induced toxicity in hippocampal cultures. […] Glutamate at various concentations (100-1000 uM) was added for 15 minutes, after which the cells were cultured in the absence of glutamate or CNTF for 20 h. Survival of cells at the end of the culture period was assessed by MTT assay based on the conversion of MTT (3-(4,5-dimethylthiazol-2-yl)-2,5-diphenyl tetrazolium bromide) to a purple product by vital cells. MTT dye was added to a final concentration of 0.5 mg/ml. Dyes taken up by live cells were solubilized by the addition of 0.08N HCI in isopropranol 5 hours later, and O.D. (570-650 nm) was measured.
The effect of CNTF on GABAergic neurons was dependent on the density at which the cells were plated. […] This may be due to an elevated level of neurotrophic factors in high density cultures. […] We have assessed the neurotoxic effects of various concentrations of glutamate (10-1000 μM) by means of a calorimetric MTT assay, as shown in FIG. 38. At a concentration of 1 mM, glutamate reduced cell survival to approximately 10%. In the presence of CNTF ([…]), cell survival following exposure to glutamate was enhanced.

[1] = system: E8 chick ciliary ganglion neurons; experiment: Survival of dissociated E8 chick ciliary ganglion neurons; type: cell-based; conditions: saturating levels of recombinant human CNTF; 48 hr
In short: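 In one protocol, dissociated E8 chick ciliary ganglion cells (2,000 per well, HEBM with 20% horse serum) were held 24 h at 37 °C, fixed, and surviving neurons counted by phase contrast. In another, trypsinized, pre-plating-enriched neurons on polyornithine-laminin (8,000-10,000 per dish, F14 with 5% horse serum) were scored as percentage process-bearing at 48 h, in triplicate.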

[2] = system: metrizamide gradient purified ventral spinal cord motorneurons; experiment: CAT activity in metrizamide gradient-purified motorneurons; type: cell-based, rat; conditions: CNTF 10 ng/ml; purified motorneuron cultures
Description: Cultures were harvested by lysing the cells in a 20 mM Tris-HCl (pH 8.6) solution containing 0.1% Triton X-100. Two microliters of the cell lysate was removed and assayed for CAT activity according to the micro-Fonnum procedure (Fonnum, 1975, J. Neurochem. 24:407-409). The final substrate composition consisted of 0.2 mM [1-^14C] Acetyl-CoA (NEN, 54.4 mCi/mmol), 300 mM NaCl, 8 mM choline bromide, 20 mM EDTA, and 0.1 mM neostigmine in 50 mM NaH2PO4 (pH 7.4) buffer. At these enzyme and substrate concentrations, the enzymatic reaction was linear for 90-120 minutes. The specificity of the induction for CAT was tested by the addition of a specific inhibitor of CAT activity, N-hydroxyethyl-4-(1-napthylvinyl) pyridium (HNP), during the assay (White and Cavallito, 1970, J. Neurochem. 17:1579-1589).
The fractionation procedure (Dohrman et al., 1986, Dev. Biol. 118:209-221) was a modification of the method described by Schnaar and Schaffner (1981, J. Neurosci. 1:204-207). Metrizamide was dissolved in F12:MEM(1:1) medium, and a step gradient consisting of 3 ml 17% metrizamide, 3 ml 12% metrizamide and 3 ml 8% metrizamide was prepared. The following steps were all carried out at 4° C. The ventral horn cell suspension (2.5 ml) obtained as described previously was layered over the step gradient, the tube was centrifuged at 2500×g for 20 minutes using a swing-out rotor. […]

B1: CNTF: ciliary neurotrophic factor; recombinant rat CNTF in Sections 10, 15, 17, purified rat sciatic nerve CNTF in Section 11; see endpoint conditions (protein, UniProt P20294 1-200, looked up)
Ciliary neurotrophic factor: MAFAEQTPLTLHRRDLCSRSIWLARKIRSDLTALMESYVKHQGLNKNINLDSVDGVPVASTDRWSEMTEAERLQENLQAYRTFQGMLTKLLEDQRVHFTPTEGDFHQAIHTLMLQVSAFAYQLEELMVLLEQKIPENEADGMPATVGDGGLFEKKLWGLKVLQELSQWTVRSIHDLRVISSHQMGISALESHYGAKDKQM
With B1 the “cell survival following exposure to glutamate” value (hippocampal neurons) was “enhanced”, the “neurons surviving and elaborating long neurites” value [1] was 60-70% and the “increase in CAT activity versus untreated cultures” value [2] was 10 fold.
